Measurements from patent US20190233495A1 (Sanofi, published 2019).
Non-standard residues stand in square brackets, D forms with d. 1Nal = N[C@@H](Cc1cccc2ccccc12)C(=O)O; Nle = CCCC[C@H](N)C(=O)O; Aib = CC(C)(N)C(=O)O

T1: RXFP1 receptor (UniProt Q9HBX9 1-757, limits assumed)
T1 sequence (looked up): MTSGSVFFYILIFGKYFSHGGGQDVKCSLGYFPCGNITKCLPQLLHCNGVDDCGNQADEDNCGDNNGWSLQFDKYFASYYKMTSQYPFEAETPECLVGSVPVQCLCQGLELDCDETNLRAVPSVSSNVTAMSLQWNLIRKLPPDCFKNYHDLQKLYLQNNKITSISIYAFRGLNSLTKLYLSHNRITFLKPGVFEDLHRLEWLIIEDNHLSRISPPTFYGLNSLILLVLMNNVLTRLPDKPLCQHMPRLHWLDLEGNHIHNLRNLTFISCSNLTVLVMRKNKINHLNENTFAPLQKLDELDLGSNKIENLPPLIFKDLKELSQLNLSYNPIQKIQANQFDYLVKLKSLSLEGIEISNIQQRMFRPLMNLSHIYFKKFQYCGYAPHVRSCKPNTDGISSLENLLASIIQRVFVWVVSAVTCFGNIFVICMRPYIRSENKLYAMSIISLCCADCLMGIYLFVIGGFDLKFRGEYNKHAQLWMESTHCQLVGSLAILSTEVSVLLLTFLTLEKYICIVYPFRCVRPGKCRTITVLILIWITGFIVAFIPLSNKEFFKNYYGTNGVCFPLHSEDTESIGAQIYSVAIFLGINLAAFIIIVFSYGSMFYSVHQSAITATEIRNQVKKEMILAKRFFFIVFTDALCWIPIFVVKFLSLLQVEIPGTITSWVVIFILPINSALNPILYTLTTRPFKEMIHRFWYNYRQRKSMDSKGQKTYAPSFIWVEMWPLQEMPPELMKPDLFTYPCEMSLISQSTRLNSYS


Target: T1, RXFP1 receptor
Assay: cell-based or functional assay

Row | cAMP assay in OVCAR 5 cells EC50 [nM] | cAMP assay in OVCAR 5 cells Emax [%] | Binder
1 | 31.9 | 103 | Ac-LEGREKVRAQI[Aib][Aib]EGMSTWSKR-NH2 (SMILES CC[C@H](C)[C@H](NC(=O)[C@H](CCC(N)=O)NC(=O)[C@H](C)NC(=O)[C@H](CCCNC(=N)N)NC(=O)[C@@H](NC(=O)[C@H](CCCCN)NC(=O)[C@H](CCC(=O)O)NC(=O)[C@H](CCCNC(=N)N)NC(=O)CNC(=O)[C@H](CCC(=O)O)NC(=O)[C@H](CC(C)C)NC(C)=O)C(C)C)C(=O)NC(C)(C)C(=O)NC(C)(C)C(=O)N[C@@H](CCC(=O)O)C(=O)NCC(=O)N[C@@H](CCSC)C(=O)N[C@@H](CO)C(=O)N[C@H](C(=O)N[C@@H](Cc1c[nH]c2ccccc12)C(=O)N[C@@H](CO)C(=O)N[C@@H](CCCCN)C(=O)N[C@@H](CCCNC(=N)N)C(N)=O)[C@@H](C)O) [SEQ ID NO: 40]
2 | 45 | 106 | Ac-LEGREKVRAQI[Aib][Aib]EGMSTWS[Aib]R-NH2 (SMILES CC[C@H](C)[C@H](NC(=O)[C@H](CCC(N)=O)NC(=O)[C@H](C)NC(=O)[C@H](CCCNC(=N)N)NC(=O)[C@@H](NC(=O)[C@H](CCCCN)NC(=O)[C@H](CCC(=O)O)NC(=O)[C@H](CCCNC(=N)N)NC(=O)CNC(=O)[C@H](CCC(=O)O)NC(=O)[C@H](CC(C)C)NC(C)=O)C(C)C)C(=O)NC(C)(C)C(=O)NC(C)(C)C(=O)N[C@@H](CCC(=O)O)C(=O)NCC(=O)N[C@@H](CCSC)C(=O)N[C@@H](CO)C(=O)N[C@H](C(=O)N[C@@H](Cc1c[nH]c2ccccc12)C(=O)N[C@@H](CO)C(=O)NC(C)(C)C(=O)N[C@@H](CCCNC(=N)N)C(N)=O)[C@@H](C)O) [SEQ ID NO: 41]
3 | 126 | 98 | Ac-LEGREKVRAQI[Aib][Aib]EGMSTWS[Aib]RK-NH2 (SMILES CC[C@H](C)[C@H](NC(=O)[C@H](CCC(N)=O)NC(=O)[C@H](C)NC(=O)[C@H](CCCNC(=N)N)NC(=O)[C@@H](NC(=O)[C@H](CCCCN)NC(=O)[C@H](CCC(=O)O)NC(=O)[C@H](CCCNC(=N)N)NC(=O)CNC(=O)[C@H](CCC(=O)O)NC(=O)[C@H](CC(C)C)NC(C)=O)C(C)C)C(=O)NC(C)(C)C(=O)NC(C)(C)C(=O)N[C@@H](CCC(=O)O)C(=O)NCC(=O)N[C@@H](CCSC)C(=O)N[C@@H](CO)C(=O)N[C@H](C(=O)N[C@@H](Cc1c[nH]c2ccccc12)C(=O)N[C@@H](CO)C(=O)NC(C)(C)C(=O)N[C@@H](CCCNC(=N)N)C(=O)N[C@@H](CCCCN)C(N)=O)[C@@H](C)O) [SEQ ID NO: 45]
4 | 52.4 | 104 | Ac-LEGREKVRAQI[Aib][Aib]EG[Nle]ST[1Nal]SKR-NH2 (SMILES CCCC[C@H](NC(=O)CNC(=O)[C@H](CCC(=O)O)NC(=O)C(C)(C)NC(=O)C(C)(C)NC(=O)[C@@H](NC(=O)[C@H](CCC(N)=O)NC(=O)[C@H](C)NC(=O)[C@H](CCCNC(=N)N)NC(=O)[C@@H](NC(=O)[C@H](CCCCN)NC(=O)[C@H](CCC(=O)O)NC(=O)[C@H](CCCNC(=N)N)NC(=O)CNC(=O)[C@H](CCC(=O)O)NC(=O)[C@H](CC(C)C)NC(C)=O)C(C)C)[C@@H](C)CC)C(=O)N[C@@H](CO)C(=O)N[C@H](C(=O)N[C@@H](Cc1cccc2ccccc12)C(=O)N[C@@H](CO)C(=O)N[C@@H](CCCCN)C(=O)N[C@@H](CCCNC(=N)N)C(N)=O)[C@@H](C)O) [SEQ ID NO: 37]
5 | 26.7 | 82 | Ac-LEGREKVRAQI[Aib][Aib]EGMSKWS[Aib]R-NH2 (SMILES CC[C@H](C)[C@H](NC(=O)[C@H](CCC(N)=O)NC(=O)[C@H](C)NC(=O)[C@H](CCCNC(=N)N)NC(=O)[C@@H](NC(=O)[C@H](CCCCN)NC(=O)[C@H](CCC(=O)O)NC(=O)[C@H](CCCNC(=N)N)NC(=O)CNC(=O)[C@H](CCC(=O)O)NC(=O)[C@H](CC(C)C)NC(C)=O)C(C)C)C(=O)NC(C)(C)C(=O)NC(C)(C)C(=O)N[C@@H](CCC(=O)O)C(=O)NCC(=O)N[C@@H](CCSC)C(=O)N[C@@H](CO)C(=O)N[C@@H](CCCCN)C(=O)N[C@@H](Cc1c[nH]c2ccccc12)C(=O)N[C@@H](CO)C(=O)NC(C)(C)C(=O)N[C@@H](CCCNC(=N)N)C(N)=O) [SEQ ID NO: 46]
6 | 251 | 104 | Ac-LEGREKVR[Aib]QI[Aib][Aib]EGMSTWS[Aib]R-NH2 (SMILES CC[C@H](C)[C@H](NC(=O)[C@H](CCC(N)=O)NC(=O)C(C)(C)NC(=O)[C@H](CCCNC(=N)N)NC(=O)[C@@H](NC(=O)[C@H](CCCCN)NC(=O)[C@H](CCC(=O)O)NC(=O)[C@H](CCCNC(=N)N)NC(=O)CNC(=O)[C@H](CCC(=O)O)NC(=O)[C@H](CC(C)C)NC(C)=O)C(C)C)C(=O)NC(C)(C)C(=O)NC(C)(C)C(=O)N[C@@H](CCC(=O)O)C(=O)NCC(=O)N[C@@H](CCSC)C(=O)N[C@@H](CO)C(=O)N[C@H](C(=O)N[C@@H](Cc1c[nH]c2ccccc12)C(=O)N[C@@H](CO)C(=O)NC(C)(C)C(=O)N[C@@H](CCCNC(=N)N)C(N)=O)[C@@H](C)O) [SEQ ID NO: 42]
7 | 82 | 101 | Ac-LEGREKVRAQI[Aib][Aib]EG[Nle]STWS[Aib]RK-NH2 (SMILES CCCC[C@H](NC(=O)CNC(=O)[C@H](CCC(=O)O)NC(=O)C(C)(C)NC(=O)C(C)(C)NC(=O)[C@@H](NC(=O)[C@H](CCC(N)=O)NC(=O)[C@H](C)NC(=O)[C@H](CCCNC(=N)N)NC(=O)[C@@H](NC(=O)[C@H](CCCCN)NC(=O)[C@H](CCC(=O)O)NC(=O)[C@H](CCCNC(=N)N)NC(=O)CNC(=O)[C@H](CCC(=O)O)NC(=O)[C@H](CC(C)C)NC(C)=O)C(C)C)[C@@H](C)CC)C(=O)N[C@@H](CO)C(=O)N[C@H](C(=O)N[C@@H](Cc1c[nH]c2ccccc12)C(=O)N[C@@H](CO)C(=O)NC(C)(C)C(=O)N[C@@H](CCCNC(=N)N)C(=O)N[C@@H](CCCCN)C(N)=O)[C@@H](C)O) [SEQ ID NO: 44]
8 | 127 | 103 | Ac-LEGREKVRAQI[Aib][Aib]EG[Nle]SK[1Nal]SKR-NH2 (SMILES CCCC[C@H](NC(=O)CNC(=O)[C@H](CCC(=O)O)NC(=O)C(C)(C)NC(=O)C(C)(C)NC(=O)[C@@H](NC(=O)[C@H](CCC(N)=O)NC(=O)[C@H](C)NC(=O)[C@H](CCCNC(=N)N)NC(=O)[C@@H](NC(=O)[C@H](CCCCN)NC(=O)[C@H](CCC(=O)O)NC(=O)[C@H](CCCNC(=N)N)NC(=O)CNC(=O)[C@H](CCC(=O)O)NC(=O)[C@H](CC(C)C)NC(C)=O)C(C)C)[C@@H](C)CC)C(=O)N[C@@H](CO)C(=O)N[C@@H](CCCCN)C(=O)N[C@@H](Cc1cccc2ccccc12)C(=O)N[C@@H](CO)C(=O)N[C@@H](CCCCN)C(=O)N[C@@H](CCCNC(=N)N)C(N)=O) [SEQ ID NO: 36]
9 | 190 | 104 | Ac-LEGREKVRA[Aib]I[Aib][Aib]EGMSTWS[Aib]R-NH2 (SMILES CC[C@H](C)[C@H](NC(=O)C(C)(C)NC(=O)[C@H](C)NC(=O)[C@H](CCCNC(=N)N)NC(=O)[C@@H](NC(=O)[C@H](CCCCN)NC(=O)[C@H](CCC(=O)O)NC(=O)[C@H](CCCNC(=N)N)NC(=O)CNC(=O)[C@H](CCC(=O)O)NC(=O)[C@H](CC(C)C)NC(C)=O)C(C)C)C(=O)NC(C)(C)C(=O)NC(C)(C)C(=O)N[C@@H](CCC(=O)O)C(=O)NCC(=O)N[C@@H](CCSC)C(=O)N[C@@H](CO)C(=O)N[C@H](C(=O)N[C@@H](Cc1c[nH]c2ccccc12)C(=O)N[C@@H](CO)C(=O)NC(C)(C)C(=O)N[C@@H](CCCNC(=N)N)C(N)=O)[C@@H](C)O) [SEQ ID NO: 43]
10 | 10.7 | 102 | Ac-LEGREKVRAQI[Aib][Aib]EGMSKWSKR-NH2 (SMILES CC[C@H](C)[C@H](NC(=O)[C@H](CCC(N)=O)NC(=O)[C@H](C)NC(=O)[C@H](CCCNC(=N)N)NC(=O)[C@@H](NC(=O)[C@H](CCCCN)NC(=O)[C@H](CCC(=O)O)NC(=O)[C@H](CCCNC(=N)N)NC(=O)CNC(=O)[C@H](CCC(=O)O)NC(=O)[C@H](CC(C)C)NC(C)=O)C(C)C)C(=O)NC(C)(C)C(=O)NC(C)(C)C(=O)N[C@@H](CCC(=O)O)C(=O)NCC(=O)N[C@@H](CCSC)C(=O)N[C@@H](CO)C(=O)N[C@@H](CCCCN)C(=O)N[C@@H](Cc1c[nH]c2ccccc12)C(=O)N[C@@H](CO)C(=O)N[C@@H](CCCCN)C(=O)N[C@@H](CCCNC(=N)N)C(N)=O) [SEQ ID NO: 38]
